From US20040082509A1

Biological target: JNKs
Assay: cell-based or functional assay

GRKKRRQRRRPPDTYRPKRPTTLNLFPQVPRSQDT [L-TAT-IB1 peptide]
phosphorylation of GST-jun (1-89) by JNKs pulled down from UV-irradiated HeLa or IL-1β treated βTC-3 cell extracts; peptide at 25 µM: 25 µM

GRKKRRQRRRPPEEPHKHRPTTLRLTTLGAQDS [L-TAT-IB2 peptide]
phosphorylation of GST-jun (1-89) by JNKs pulled down from UV-irradiated HeLa or IL-1β treated βTC-3 cell extracts; peptide at 25 µM: 25 µM
